{"source": "patent US20230039279", "proteins": {"B1": {"name": "human neutrophil elastase (HNE) (protein)", "chain": "IVGGRRARPHAWPFMVSLQLRGGHFCGATLIAPNFVMSAAHCVANVNVRAVRVVLGAHNLSRREPTRQVFAVQRIFENGYDPVNLLNDIVILQLNGSATINANVQVAQLPAQGRRLGNGVQCLAMGWGLLGRNRGIASVLQELNVTVVTSLCRRSNVCTLVRGRQAGVCFGDSGSPLVCNGLIHGIASFVRGGCASGLYPDAFAPVAQFVNWIDSIIQ"}}, "key": {"[1]": {"biological_target": "T1, MMP-9 sensitive peptide (GPRSLSG-RRCG) linked ibuprofen (not fully specified)", "T1 chain": "GPRSLSGRRCG"}, "[2]": {"biological_target": "T2, HNE peptide substrate H2, GRCR-PMAVVQSVP-RCRG (not fully specified)", "T2 chain": "GRCRPMAVVQSVPRCRG"}}}
{"protein": "B1", "values": [{"measurement": "maximum cumulative drug release at 48 hours from the dual-responsive conjugate hydrogel, HNE alone (1 µg/ml)", "setting": "[1]", "result": "maximum cumulative drug release reached 24%, which was much lower than the release in enzyme MMP-9 solution"}, {"measurement": "specificity of protease-triggered ibuprofen liberation (FIG. 10B)", "setting": "[1]", "result": "the peptide sequence, GPRSLSGRRCG (SEQ ID NO: 20), as a spacer illustrated a good specificity toward MMP-9 compared to cathepsin B and human neutrophil elastase (HNE)"}, {"measurement": "degradation of H2-M2 combinational hydrogel and release of PLGA particles over 24 hours", "setting": "[2]", "result": "H2 and M2 peptide substrates were preferentially cleaved by HNE and MMP-9 proteases respectively"}]}
